Reference: article PMC8052261

Target: DDX3X helicase core WT (human, UniProt O00571 132-607)
Assay: fluorescence polarization

Chain of DDX3X helicase core WT (O00571 132-607): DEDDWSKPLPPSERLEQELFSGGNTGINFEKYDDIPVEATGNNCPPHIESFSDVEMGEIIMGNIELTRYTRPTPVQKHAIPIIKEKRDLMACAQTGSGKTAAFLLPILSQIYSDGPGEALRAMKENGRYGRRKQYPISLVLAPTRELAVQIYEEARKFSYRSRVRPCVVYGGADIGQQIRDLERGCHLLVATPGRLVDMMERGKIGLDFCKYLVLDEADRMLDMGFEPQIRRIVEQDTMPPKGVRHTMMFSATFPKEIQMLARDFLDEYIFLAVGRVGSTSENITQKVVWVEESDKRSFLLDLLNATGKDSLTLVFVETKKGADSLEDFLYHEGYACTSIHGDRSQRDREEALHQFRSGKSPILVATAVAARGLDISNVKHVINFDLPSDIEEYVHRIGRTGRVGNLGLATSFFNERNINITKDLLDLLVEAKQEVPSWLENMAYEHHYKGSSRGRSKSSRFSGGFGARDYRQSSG

Binder: UCUCUCUCUCUCUCUCUCUC (ssRNA) [(UC)10]
- binding result: no binding
